From paper PMC4465062

Molecular target: HOXD13 DNA binding domain (D13DBD) (Mus musculus, UniProt P70217)
Test: NMR

B1: HOXD13 duplex DNA (dsDNA)
DNA 1: CAACGTTAAAAC
DNA 2: GTTTTAACGTTG
- binding result: binds
